Results reported in patent US20230414752A1.

Molecular target: human EpCAM (human) (UniProt P16422)
Experiment: binding affinity, method not stated

Sequence of UniProt P16422 (P16422 24-265 limits assumed): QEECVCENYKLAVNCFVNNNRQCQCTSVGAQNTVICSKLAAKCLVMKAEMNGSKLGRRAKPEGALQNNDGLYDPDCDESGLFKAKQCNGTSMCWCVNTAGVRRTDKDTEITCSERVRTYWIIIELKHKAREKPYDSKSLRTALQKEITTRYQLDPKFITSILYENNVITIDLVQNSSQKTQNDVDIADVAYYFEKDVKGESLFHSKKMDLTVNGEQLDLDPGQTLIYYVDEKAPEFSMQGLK

B1: hVIB-13 (VHH)
VHH: QVQLVESGGGLVQPGGSLTLSCAASGTGSIFSINLMGWYRQAPGKQRELVARITSGDSTVYADSVKGRFTISRDNSKNTLYLQMNSLRPEDTAVYYCNLLLRSSPGATTPYWGQGTLVTVSS
  Kd: 2.8 nM
